Patent US20210269542A1 (POTENZA THERAPEUTICS, published 2021)

How the values were obtained:
[1] = molecular target: T1, cynomolgus monkey GITR expressed on HT1080 cells (cynomolgus monkey); assay: cell-based or functional assay
T1 chain: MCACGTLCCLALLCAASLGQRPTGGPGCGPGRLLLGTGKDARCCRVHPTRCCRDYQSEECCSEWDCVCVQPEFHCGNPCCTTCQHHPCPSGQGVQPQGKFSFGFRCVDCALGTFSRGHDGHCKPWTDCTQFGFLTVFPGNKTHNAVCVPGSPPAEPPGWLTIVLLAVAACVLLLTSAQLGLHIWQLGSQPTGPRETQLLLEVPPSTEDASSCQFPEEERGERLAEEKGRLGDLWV

[2] = molecular target: T2, human GITR expressed on cells (human, UniProt Q9Y5U5 26-241); assay: cell-based or functional assay
T2 sequence: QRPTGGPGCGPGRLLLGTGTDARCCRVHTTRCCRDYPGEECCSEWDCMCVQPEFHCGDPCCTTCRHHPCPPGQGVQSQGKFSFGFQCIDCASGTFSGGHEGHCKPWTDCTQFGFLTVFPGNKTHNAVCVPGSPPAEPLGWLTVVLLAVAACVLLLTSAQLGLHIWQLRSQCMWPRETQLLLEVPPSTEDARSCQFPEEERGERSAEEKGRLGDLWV

human GITR-Fc = molecular target: T3, human GITR-Fc (human, UniProt Q9Y5U5 26-162); assay: BLI Octet RED384, ABP on AHQ sensor, 100 nM antigen, single concentration;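 also: association and dissociation each tracked over 180 s, with dissociation run in antigen-free buffer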
T3 construct: also called recombinant hGITR; wild type human GITR-Fc
T3 sequence: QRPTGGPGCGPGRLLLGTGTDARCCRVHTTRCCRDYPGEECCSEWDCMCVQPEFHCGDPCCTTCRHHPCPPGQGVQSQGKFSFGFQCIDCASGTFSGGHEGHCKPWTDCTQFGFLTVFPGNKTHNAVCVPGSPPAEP
Method: (§1) The sensors were quenched by dipping into an unrelated human IgG1 antibody to prevent non-specific binding of GITR-Fc antigens to the sensor. The sensors were equilibrated in assay buffer for 30 minutes. Baseline was established by dipping the sensors into assay buffer for 60 seconds. Association was monitored for 180 seconds in 100 nM of recombinant antigens, and dissociation was followed for 180 seconds in buffer alone. KD was determined using the kinetic function of the FORTEBIO® Analysis Software using a 1:1 binding model.

cyno GITR-Fc = molecular target: T4, cyno GITR-Fc (cynomolgus monkey); assay: as above
T4 construct: also called cGITR; cynomolgus GITR
T4 chain: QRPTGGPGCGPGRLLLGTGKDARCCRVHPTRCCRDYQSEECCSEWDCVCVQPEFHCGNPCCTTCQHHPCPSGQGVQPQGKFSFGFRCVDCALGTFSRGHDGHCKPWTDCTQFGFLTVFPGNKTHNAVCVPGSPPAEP
Method: as §1

[3] = molecular target: T2, human GITR expressed on cells; assay: cell-based or functional assay; remark: listed apart in the source
[4] = molecular target: T1, cynomolgus monkey GITR expressed on …; assay: cell-based or functional assay
[5] = molecular target: T2, human GITR expressed on cells; assay: cell-based or functional assay; remark: listed apart in the source

Row | Binder | Average EC50 in cynomolgus HT1080 (IL-8 induction) [1] [nM] | Average EC50 in human HT1080 (IL-8 induction) [2] [nM] | Kd (human GITR-Fc) [nM] | Kd (cyno GITR-Fc) [nM] | EC50 in human HT1080 (IL-8 induction), n = 2 [3] [nM] | binding result (cyno GITR-Fc) | EC50 in cynomolgus HT1080 (IL-8 induction) [4] [nM] | EC50 in human HT1080 (IL-8 induction) [5] [nM]
1 | ABP36 (antibody, human IgG1, kappa, N297A, V domains shown, IgG1 N297A, bivalent; also called non-TM ABP corresponding to ABP2) VH: QVQLQESGPGLVKPSQTLSLTCTVSGGSISSGGAVWSWIRQHPGKGLEWIGGIAYSGSTYYNPSLKSRVTISVDTSKNQFSLKLSSVTAADTAVYYCADENVRGYGDYGGHHAFDIWGQGTMVTVSS VL: not shown | 8.8 | 0.58 | 1.4 | 7.5 |  |  |  | 
2 | ABP39 (antibody, human IgG1, kappa, N297A, V domains shown, IgG1 N297A, bivalent; also called non-TM ABP corresponding to ABP6) VH: QVQLQESGPGLVKPSETLSLTCAVSGYSISSGAGWGWIRQPPGKGLEWIGLIVHSGSTYYNPSLKSRVTISVDTSKNQFSLKLSSVTAADTAVYYCVLESVRGYGDYGGHHAFDIWGQGTMVTVSS VL: DIQMTQSPSSLSASVGDRVTITCRASQSISSYLNWYQQKPGKAPKLLIYAADSLQSGVPSRFSGSGSGTDFTLTISSLQPEDFATYYCQQEYNTPPTFGGGTKVEIKR | 2.3 | 0.44 | 0.7 | 8.2 |  |  |  | 
3 | ABP41 (antibody, human IgG1, kappa, N297A, V domains shown, IgG1 N297A, bivalent; also called non-TM ABP corresponding to ABP8) VH: QVQLQESGPGLVKPSETLSLTCAVSGYSISSEYMWGWIRQPPGKGLEWIGLIYHSGKTYYNPSLKSRVTISVDTSKNQFSLKLSSVTAADTAVYYCAREADRGYGDYGGHHAFDIWGQGTMVTVSS VL: DIQMTQSPSSLSASVGDRVTITCGASQSISTYLNWYQQKPGKAPKLLIYSASSLESGVPSRFSGSGSGTDFTLTISSLQPEDFATYYCQQEYNTPPSFGGGTKVEIKR | 2 | 0.44 | 2.3 | 6.9 |  |  |  | 
4 | ABP35 (antibody, human IgG1, kappa, N297A, V domains shown, IgG1 N297A, standard bivalent format; also called ABP35 IgG1; non-TM ABP corresponding to ABP1) VH: QVQLQESGPGLVKPSETLSLTCAVSGYSISSGLGWGWIRQPPGKGLEWIGGIYESGSTYYNPSLKSRVTISVDTSKNQFSLKLSSVTAADTAVYYCAHERVRGYGDYGGHHAFDIWGQGTMVTVSS VL: not shown | 2 | 0.88 | 1.5 | 5.7 |  |  |  | 
5 | ABP37 (antibody, human IgG1, kappa, N297A, V domains shown, IgG1 N297A, bivalent; also called non-TM ABP corresponding to ABP3) VH: QVQLQESGPGLVKPSETLSLTCAVSGYSISSGAGWGWIRQPPGKGLEWIGLIVHSGSTYYNPSLKSRVTISVDTSKNQFSLKLSSVTAADTAVYYCVLESVRGYGDYGGHHAFDIWGQGTMVTVSS VL: DIQMTQSPSSLSASVGDRVTITCRASQSISSYLNWYQQKPGKAPKLLIYAASSLKYGVPSRFSGSGSGTDFTLTISSLQPEDFATYYCQQEYNTPPTFGGGTKVEIKR | 1.7 | 0.19 | 0.7 | 8.1 |  |  |  | 
6 | ABP40 (antibody, human IgG1, kappa, N297A, V domains shown, IgG1 N297A, bivalent; also called non-TM ABP corresponding to ABP7) VH: QVQLQESGPGLVKPSETLSLTCAVSGYSISSEYMWGWIRQPPGKGLEWIGLIYHSGKTYYNPSLKSRVTISVDTSKNQFSLKLSSVTAADTAVYYCAREADRGYGDYGGHHAFDIWGQGTMVTVSS VL: DIQMTQSPSSLSASVGDRVTITCRASQSINSYLNWYQQKPGKAPKLLIYAASSLDSGVPSRFSGSGSGTDFTLTISSLQPEDFATYYCQQEYNTPPTFGGGTKVEIKR | 1.1 | 0.34 | 2.2 | 4.9 |  |  |  | 
7 | ABP48 (antibody, human IgG1, kappa, N297A, V domains shown, IgG1 N297A, H1H2-optimized, non-TM) VH: QVQLQESGPGLVKPSETLSLTCAVSGYSISSEYMWGWIRQPPGKGLEWIGLIYHSGKTYYNPSLKSRVTISVDTSKNQFSLKLSSVTAADTAVYYCARDSGRGYGDYGGHHAFDIWGQGTMVTVSS VL: not shown |  |  | 14.8 |  | 0.8 | no binding (tested: 100 nM) |  | 
8 | ABP38 (antibody, human IgG1, kappa, N297A, V domains shown, IgG1 N297A, bivalent; also called non-TM ABP corresponding to ABP4/5) VH: QVQLQESGPGLVKPSETLSLTCAVSGYSISSGAGWGWIRQPPGKGPEWIGLIVHSGSTYYNPSLKSRVTISVDTSKNQFSLKLSSVTAADTAVYYCVLESVRGYGDYGGHHAFDIWGQGTMVTVSS VL: DIQMTQSPSSLSASVGDRVTITCRASKSIDSYLNWYQQKPGKAPKLLIYAASSLQSGVPSRFSGSGSGTDFTLTISSLQPEDFATYYCQQEYNTPPTFGGGTKVEIKR | 14.3 | 0.33 | 0.6 | 11.1 |  |  |  | 
9 | ABP11 (antibody, human IgG1, kappa, N297A, V domains shown) VH: QVQLVQSGAEVKRPGSSVKVSCKASGGTFSSYYISWVRQVPGQGLEWMGGIIPVPGTANYAQKFQGRVTITADESTSTAYMELSSLRSEDTAVYYCARAGGGYARGDHYYGMDVWGQGTTVTVSS VL: not shown |  |  | 3.1 | 8.5 |  |  | 21.6 | 3.9
10 | ABP12 (antibody, human IgG1, kappa, N297A, V domains shown) VH: QVQLVQSGAEVKKPGSSVKVSCKASGGTFSSYYISWVRQAPGQRLEWMGGIIPVPGTANYAQKFQGRVTITADESTSTAYMELSSLRSEDTAVYYCARAGGGYARGDHYYGMDVWGQGTTVTVSS VL: not shown |  |  | 2.8 | 7.9 |  |  | 28.4 | 3.5
11 | ABP13 (antibody, human IgG1, kappa, N297A, V domains shown) VH: QVQLVQSGAEVKKPGSSVKVSCKASGGTFSRGAISWVRQAPGQGLEWMGGIIPIEGTAYYAQKFQGRVTITADESTGTAYMELSSLRSEDTAVYYCARQSDYGLPRGMDVWGQGTTVTVSS VL: DIQLTQSPSSVSASVGDRVTITCRASQGISSWLAWYQQKPGKAPKLLIYGASSLQSGVPSRFSGSGSGTDFTLTISSLQPEDFATYYCQQASLFPPTFGGGTKVEIKR |  |  | 5.5 | 6.4 |  |  | 15 | 7.8
12 | ABP14 (antibody, human IgG1, kappa, N297A, V domains shown) VH: QVQLVQSGAEVKKPGSSVKVSCKASGGTFSSYAISWVRQAPGQGLEWMGGIIPISGFTNYAQKFQGRVTITADESTSTAYMELSSLRSEDTAVYYCAREGGHYYSGWPYWGQGTLVTVSS VL: EIVLTQSPATLSLSPGERATLSCRASQSVSSYLAWYQQKPGQAPRLLIYDASNRATGIPARFSGSGSGTDFTLTISSLEPEDFAVYYCQQRLVFPPTFGGGTKVEIKR |  |  | 2.8 | 5.9 |  |  | 4.1 | 0.6
13 | ABP18 (antibody, human IgG1, kappa, N297A, V domains shown) VH: QVQLVQSGAEVKKPGSSVKVSCKASGGTFVRYAISWVRQAPGQGLEWMGGIIPIFGEAQYAQKFRGRATITADESTSTAYMELSSLRSEDTAVYYCAREGYYYGALPYWGQGTLVTVSS VL: EIVLTQSPATLSLSPGERATLSCRASQSVSSYLAWYQQKPGQAPRLLIYDASNRATGIPARFSGSGSGTDFTLTISSLEPEDFAVYYCQQHSVFPPTFGGGTKVEIKR |  |  | 4 | 8.4 |  |  | 13.2 | 2.1
14 | ABP15 (antibody, human IgG1, kappa, N297A, V domains shown) VH: QVQLVQSGAEVKKPGSSVKVSCKASGGTFSSYAISWVRQAPGQRLEWMGGIIPISGFTNYAQKFQGRVTITADESTSTAYMELSSLRSEDTAVYYCAREGGHYYSGWPYWGQGTLVTVSS VL: EIVLTQSPATLSLSPGERATLSCRASQSVSSYLAWYQQKPGQAPRLLIYDASNRATGIPARFSGSGSGTDFTLTISSLEPEDFAVYYCQQRLVFPPTFGGGTKVEIKR |  |  | 3.3 | 5.2 |  |  | 4.5 | 0.6
15 | ABP17 (antibody, human IgG1, kappa, N297A, V domains shown) VH: QVQLVQSGAEVKKPGSSVKVSCKASGGTFVRYAISWVRQAPGQGLEWMGGIIPIFGEAQYAQRFQGRVTITADESTSTAYMELSSLRSEDTAVYYCAREGYYYGALPYWGQGTLVTVSS VL: EIVLTQSPATLSLSPGERATLSCRASQSVSSYLAWYQQKPGQAPRLLIYDASNRATGIPARFSGSGSGTDFTLTISSLEPEDFAVYYCQQHSVFPPTFGGGTKVEIKR |  |  | 4.2 | 4.6 |  |  | 8.4 | 5.3
16 | ABP16 (antibody, human IgG1, kappa, N297A, V domains shown) VH: QVQLVQSGAEVKKPGSSVKVSCKASGGTFSSYAISWVRQAPGQGLEWMGGIIPISGFTNYAQKFQGKVTITADESTSTAYMELSSLRSEDTAVYYCAREGGHYYSGWPYWGQGTLVTVSS VL: EIVLTQSPATLSLSPGERATLSCRASQSVSSYLAWYQQKPGQAPRLLIYDASNRATGIPARFSGSGSGTDFTLTISSLEPEDFAVYYCQQRLVFPPTFGGGTKVEIKR |  |  | 2.9 | 5.4 |  |  | 3.8 | 0.6
